Results on 14 sequences are retold here after a protein production outcome set (Wang et al. 2014).

The nature of the series: label from the status in PepcDB records.
On to “MNTIKLKKNALFNPEGDTDLRHRRMIGGNTTNLNDFNNMRYKWVSDWYRQAMNNFWIPEEINLTQDTKDYPHLDQAERTAYDKILSFLVFLDSLQSNNLPTISEYITANEVNLCLHIQAFQECVHSQSYSYMLDSICSPEKRNEILYQWKTDGHLLKRNTFIGNCYNEFQESQDGFTLMKTLIANYILEGIYFYSGFMFFYNLSRNGKMSGSAQEIRYINRDENTHLWLFRNIILELKKEEPDLFTPDKVKIYEYMMREGVKQEIEWGQYVIGDNIQGLNRKMIEDYIQYLGNLRWSSLGFGPLYEENHKEPESMHWVSQYSNANMVKTDFFEAKSTAYAKSTALEDDL”, for which the protein production result was “failed”. As for “MNTKPVLVILGPTASGKTELAFRIARQTGGEIISADSRQIYRGMDIGTAKPPRWMLDEVKHHFIDKKEIGEPFSAGDFAEQAAEKIRELHQRGITPVVAGGSTLYLEGLLKGFAELPPADPEIRAQLTRELERHGAEALYRRLEALDPEQAKTLDPTKTQRLIRSLEIIEISGTTVTALQSKTPGPPTGINFTVIGLDLPRELLYERINQRTSAMIQAGLEAEARYLFDKFRDEWRSKNLNALATVGYRELFEHFEELHDLDTAVSLIAQHTRNYAKRQLTFFRNRLDVEWVKAPLDEAEIEALVEFFSTRQDDSVPHSPIAIAKKQNA”, the protein production entry was “failed”. With “MNTMEKKTNIHAEDGKQDLLISREFDLPVELLFKAYTEPEFVEQWMGTTVLKLENKKHGSYQFETTDPKGNKHGFNGTIHEFVPDKKITRTFEMDNTPFPIQLEFLVFEKTTETTSKLNMHVIYKSVTDRDNILKLPFAQGINMAHNRIQELPTKLK”, the protein production result is given as “failed”. “MNTMLNPHYQQIWQTVQLIPQGKVACYGQIADLAGLPGRARLVGKSLGKVPKDGWRGQRVPWFRVINSQGKISFPPGSENFDKQKHHLQDEQVVVIGSRIKLKEFQWKPDLSELLFSLEFLEHHHHHH”: the protein production result is given as “failed”.

In the case of “MNTMVELRKLIVFLLSFTFLLYLLYVGINISKKLRIRRSPFFLMISGVGLITLGTFLDAIDKFIDVGIKNVIAACFTFGAILFVVFIIFLSNNFVCTVSLLYEDANMDKMTGAYNRKGINEIFQRSIAKQNSFYLMLFDLDETKRLNDKYGHAVGDKYIIGASAIIKDTIGNKGFVGRIGGDEFIALLKLENEVDVEKIKKLIKDQFCESFKQYGANISIGYSRFKEDGQEFEEIFQIADKNMYDDKKSNKKNKACF”, the protein production result was “failed”. As to “MNTPSRTHLVIIPSYNPGPKVYETVQAARRYWNPVWVVVDGSTDGTWEGLLKLSAEDSGLVVLGMPANRGKGAAVLRGLLTSRRKGFTHALVMDSDGQHPADRIPEFMARSQEEPDAMILGVPVFDDSAPSLRVKGRRISNWWANLETLWCGIGDSLFGFGVYPIQALCVIMQDHQWMRRFDFDPEAAVRLCWAGIRPVNLPVPVYYPKPEEGGTSHFHYWRDNALLTWMHVRLMFGFLARLPILLARIVRRPEILEHHHHHH”, the protein production entry is recorded as “failed”.

As to “MNTSDRIKSTQIALDRDLREQALLLLKEVRAVDGVDALSEQFVRGLAEPGLGHSHLIVTLNDKLVGLAATDEETTELAVHPAHRRQGIGKALIDAT”, the protein production result is listed as “failed”. For “MNTSHSSPSNTLLWQSLGLGLLALLLFCAGADHQSAIGFDSRFVLFAKEMLRHGPGFFPTTYGQPYADYSSASTLLVWLFSLPGGQVTSLTAWLPTAIASALIVSLIYRLLAPYSRTWALLSVALLLLSNTFISETRAVSLDQMLAAVSLAVFYLGYAHDHFGTRRRLGWIFLLLVLGFAIRGPIGLVIPTGMLCSYYLLNGQWRRLFSVGFSALALLVACVGLLLWLAKLSGGQAFVDDVIRMQFMGRMDGSEGSSDVFYYFTSSLGNYALAYPLAILAWLAVLLTRATEQGPGLKLLRLCTAAGLIVMIGLSIPQAKKARYLLPMLPMAAIIAAYPFQAGRGRLLAWLRGAIQGLWLLLPGLLIIGLLVLRRKFPEQLDSLTPMLLVLGLLQLLSLGLLFKRQWRAVGLAYSAVLAVWACYIGVFEPVEHRLYDTRTFSHSAMQLIEADPAPVVLHRMGKDAKAIKFMVNLDRDLQPQFTESPDALAQVPGPAWVILDQSDLASLQNTPLADLKPVLSGRFDKNDFVLLHLTGPTAAQP” the value was “failed”.

In the case of “MNTVFFYLQVSIKNLHDSIKNLRVSIKNLYVSIKGAGITAFLQTVKYERFEEKILMDFISNLFGRDKNQSFLEASKQGQTENVEKLLRSNKVDVNYQDAYGKTALISAADKGYRDVIGLLIESGPNLDLQDENGNTALISAAKIERGDIIDLLVKNGADLNFQDENGETALKFAVKVGYKNIADQLIDAGTDLNIQDENGETALICAADRAHRDIAELLIKAGADLNIQDNSGKTALVAATKIGHKGIVELLVNAGADLNLQDKNGNTALIYAADRGYRDIVNLLIEGGASLNIPDEAGLTALMFSAQTGRKDIVELLIKAGADINIEDKNNKTAADLAAEVGFEEIVDLLTSVRTYSSS”, the protein production entry was “failed”. As for “MNVAEEMLSGEETLAVGERFKTFLENFRTEEGKLKYVEAIRRMINYEETSLEVEFKDLYRYDPLLSEILLEKPREFLKEASEALKEIVAQESPEYAQGRVFTPRFTGLFDTERIRDIGSDHVGKLVQINGIVTRMHPRATRMVRARFRHDRCGAEFWWPANEDEVLGERIERPSICPVCGEGGGKFTLVRDKSLYIDWQKIMVQERPEDVPGGQIPRSIEVHLSRDLVEKVRPGDRVKIVGVVGLQSFSSSSTLYSLYMEANSILLEEKILEEVSITREDEEKILQLSRDPWIKEKIIASIAPTIYGHWDLKEAIALLLFGGVPKQRPDGTRTRGDIHVLFVGDPGVAKSQLLQSTAQVAPRVVYTTGKGSTAAGLTAAVLRDPRTGEYFLEAGALVLADGGIAVIDEFDKMSKEDRGVIHEAMEQQTVSIAKAGIKATLSARASLLAAGNPKFGYYDPSRSFVDNVDLPAPIISRFDLIFVVRDVIERSRDEMLASYVLETHTNVELFKPEIDPDLLRKYIAFARKHVKPRLTPQAKKLLKDFYVEMRSSALHHSSQEGAKPVPITTRQLEALIRLTEAHARMSLKQEATEEDAIAAIRIMTSVLQSIGLDLETGEIDIGIIMTGASFRSRKIMSEVLDLIKSIVEEERGGQGCVRASEIVRRLGEKNIPEEKVRDAIDKLYRQGLIIEIRTECYKAV”, the protein production entry is recorded as “failed”. To “MNVDARVGVAVDGAQSALNTATTVHSSVVMTQIKPQAKLGTFQNLLAGGIAGAISKTCTAPLARLTILFQLQGMQSEGAVLSRPNLRREASRIINEEGYRAFWKGNLVTVVHRIPYTAVNFYAYEKYNLFFNSNPVVQSFIGNTSGNPIVHFVSGGLAGITAATATYPLDLVRTRLAAQRNAIYYQGIEHTFRTICREEGILGLYKGLGATLLGVGPSLAINFAAYESMKLFWHSHRPNDSDLVVSLVSGGLAGAVSSTDDKLFDAHNYVATYPLDLVRRRMQVEGAGGRARVYNTGLFGTFKHIFKSEGFKGIYRGILPEYYKVVPGVGIVFMTYDALRRLLTSLPD” belongs “failed”. Consider “MNVELFKKFSEKVEEIIEAGRILHSRGWVPATSGNISAKVSEEYIAITASGKHKGKLTPEDILLIDYEGRPVGGGKPSAETLLHTTVYKLFPEVNAVVHTHSPNATVISIVEKKDFVELEDYELLKAFPDIHTHEVKIKIPIFPNEQNIPLLAKEVENYFKTSEDKYGFLIRGHGLYTWGRSMEEALIHTEALEFIFECELKLLSFHS”, for which the protein production entry is “not failed”. With “MNVFQMLRLPDLVSLLNLICGIGSIAVAAQSDSFGFALILLLLAAVADGADGYIARRFKGGELGEQLDSLADAVSFGVAPALLIFLEFGVEEPIVGIFAGLYAVCGVLRLARFNSSISVPKAGFEGLPITAGCIMLVTYLLLGESFVIVDVLLALTLALSILMVSTVNYPKIRNIKILAFVAAVFGITMLLYFIDVQYMRVFSFLPFILMLSYLFSPFLKIPVISIATSKDYGNRKGAKAEGRKEKQ”, the protein production result is on record as “failed”. For “MNVKRIKKRMFITFSIIAVLAIALYIFLQTAPFGNPPADARLERIRKSANYKDGVFKNLSNTPVMAEDASYMDMIKQQFSKDSTREPAVCIPSVKRDLSLVPSDRPVITWFGHSTYLIQTEGKNILIDPVFCTSTSPVQFVGNKKYKGTEVYTPADFPAINYLILTHDHYDHLDYQTTLDMQSKVFSYYMPLGVGSHLESWGIDTAKLHELDWWQEIDLEPGYKLVCLPARHFSGRSITDRGKTLWASYLLITPTHKIYIGGDSGYDTHFKQIADKYGAVDIAFLESGQYNAYWPYIHMMPEQTVQAAKDLQAKVLLPVHWGKYTLALHPWDEPIKRLTLEAHKQQVNVATPMIGEPVILDSILPHSTWWVPEGKK” the value was “failed”.
